The target in assay [1] is T1, p110β (Mus musculus, UniProt Q8BTI9).
T1 construct: Mouse His6-p110β(1-1064)/p85β-icSH2(423-722) complex; made in house; host or cells: Sf9 insect cells (baculovirus co-infection)
Put plainly: Transcreener ADP formation (fluorescence polarization), diC8-PIP2/POPS liposomes, mouse p110β complexes. The format is biochemical. To be noted: 10 μM PDGFR pY2; Figure 3A. The method, then: (§1) Figure 1 Inhibition of p110β by p85-Type Regulatory Subunits and Activation of the Complexes by RTK Phosphopeptide (A) Domain organization of p110β and the regulatory subunits p85α, p85β, and p55γ. The color scheme for the domains is used for all figures, unless otherwise stated. […] The inhibition is released upon addition of the 10 μM PDGFR pY2. […] The y axis is expressed as a change in fluorescence polarization (ΔmP), which is obtained by subtracting the observed polarization for the construct at a given enzyme concentration from the maximum fluorescence polarization for that construct. The plateau in these assays arises due to the competitive nature of the ADP detection system, based on displacement of ADP-Alexa 633 tracer from the ADP^2-antibody by ADP generated during the PI3K assay (see Supplemental Experimental Procedures). All measurements were done in triplicates, and the error bars indicate the standard error of the mean (SEM). (C) Kinase activity of p110β/p85β complexes with monomeric substrate (75 μM diC8-PIP2) in the presence and absence of pY2; y axis as in (B). (D) Basal- and pY2-stimulated activities of 35 nM PI3K complexes in the absence of lipids (ATP hydrolysis). Activities are given as percent of ATP converted to ADP using the Transcreener assay. Bars indicate SEM. TEXT PRINTED IN THE PICTURE: (B) p110β/nic: EC50 (nM): 15 | (B) p110β/nic+pY2: EC50 (nM): 0.14 | (B) p110β/ic: EC50 (nM): 1 | (B) p110β/ic+pY2: EC50 (nM): 0.21 | (B) p110β/ni: EC50 (nM): 0.84 | (B) p110β/ni+pY2: EC50 (nM): 0.24 | (B) p110β/i: EC50 (nM): 0.12 | (B) p110β/i+pY2: EC50 (nM): 0.14 | (B) ΔABD-p110β: EC50 (nM): 0.06 | (B) ΔABD-p110β+pY2: EC50 (nM): 0.05 | (C) p110β/nic: EC50 (nM): 24 | (C) p110β/nic+pY2: EC50 (nM): 3 | (C) p110β/ic: EC50 (nM): 5 | (C) p110β/ic+pY2: EC50 (nM): 2 | (C) p110β/ni: EC50 (nM): 4 | (C) p110β/ni+pY2: EC50 (nM): 2 […]
(§2) Figure 3 Mutation Y677A in p85β-cSH2 Releases Inhibitory Effect on p110β (A) Kinase activity (ADP formation) of p110β in a complex with p85β-icSH2-Y677A (Y677A-ic) compared to the wild-type complex (ic) in the absence and presence of 10 μM PDGFR pY2 (ADP formation on the y axis expressed as in Figure 1B). (B) Comparison of p110β activities of 1 nM complexes with wild-type or Y677 mutant nicSH2 or icSH2 (activity shown as in Figure 1D). TEXT PRINTED IN THE PICTURE: (A) p110β/ic: EC50 (nM): 1 | (A) p110β/ic+pY2: EC50 (nM): 0.15 | (A) p110β/ic-Y677A: EC50 (nM): 0.11 | (A) p110β/ic-Y677A+pY2: EC50 (nM): 0.08 […]
(§3) The lipid kinase activity was determined using the Transcreener ADP2 FP Assay (BellBrook Labs, Madison, WI) according to manufacturer‟s specifications. This non-radioactive assay measures activity by quantitating the amount of ADP formed. The ADP formed by PI3K competes with fluorescent ADP tracer for binding to an anti-ADP antibody, thereby decreasing fluorescence polarization. Because of the competitive nature of this assay, the change in fluorescence polarization signal is not a linear function of enzyme activity, and a convenient measure of enzyme activity is the EC50, or the concentration of enzyme necessary to give half-maximal inhibition of labeled ADP binding to the antibody, for a given concentration of substrate and a fixed time of reaction at initial rate. While activity of two different enzyme constructs can be compared at a fixed concentration of protein and a fixed concentration of substrate, the assay is most reliable when about 2%-10% of the ATP is […]
(§4) Consequently, the EC50 provides a convenient way to compare the activities of various constructs. Briefly, reactions were performed in 10 μl volume in 384-well black plates (Corning 3676) and they contained final 100 μM ATP, 75 μM lipids and a series of protein concentration varying from 0.001 nM to 2.5 μM. Serial dilutions of protein heterodimers were prepared in buffer F (50 mM Hepes pH 7.5, 100 mM NaCl, 0.03% CHAPS, 4 mM DTT) in 5 μl […]
volume. […]
(In general: Fluorescence polarisation rises when a labelled molecule tumbles more slowly, as on binding a larger partner.)

For assay [2], the system named is p110β. Described as above. To be noted: for EC50: Figure 3A, Y677A vs wild-type, diC8-PIP2/POPS, 100 μM ATP, 1 h, room temperature. The format is biochemical. As for the experimental part: as §1, §2, §3, §4
volume. […]

Read-outs that look alike come from different tables or passages of the source.

T1 sequence (Q8BTI9 whole entry, one chain of several): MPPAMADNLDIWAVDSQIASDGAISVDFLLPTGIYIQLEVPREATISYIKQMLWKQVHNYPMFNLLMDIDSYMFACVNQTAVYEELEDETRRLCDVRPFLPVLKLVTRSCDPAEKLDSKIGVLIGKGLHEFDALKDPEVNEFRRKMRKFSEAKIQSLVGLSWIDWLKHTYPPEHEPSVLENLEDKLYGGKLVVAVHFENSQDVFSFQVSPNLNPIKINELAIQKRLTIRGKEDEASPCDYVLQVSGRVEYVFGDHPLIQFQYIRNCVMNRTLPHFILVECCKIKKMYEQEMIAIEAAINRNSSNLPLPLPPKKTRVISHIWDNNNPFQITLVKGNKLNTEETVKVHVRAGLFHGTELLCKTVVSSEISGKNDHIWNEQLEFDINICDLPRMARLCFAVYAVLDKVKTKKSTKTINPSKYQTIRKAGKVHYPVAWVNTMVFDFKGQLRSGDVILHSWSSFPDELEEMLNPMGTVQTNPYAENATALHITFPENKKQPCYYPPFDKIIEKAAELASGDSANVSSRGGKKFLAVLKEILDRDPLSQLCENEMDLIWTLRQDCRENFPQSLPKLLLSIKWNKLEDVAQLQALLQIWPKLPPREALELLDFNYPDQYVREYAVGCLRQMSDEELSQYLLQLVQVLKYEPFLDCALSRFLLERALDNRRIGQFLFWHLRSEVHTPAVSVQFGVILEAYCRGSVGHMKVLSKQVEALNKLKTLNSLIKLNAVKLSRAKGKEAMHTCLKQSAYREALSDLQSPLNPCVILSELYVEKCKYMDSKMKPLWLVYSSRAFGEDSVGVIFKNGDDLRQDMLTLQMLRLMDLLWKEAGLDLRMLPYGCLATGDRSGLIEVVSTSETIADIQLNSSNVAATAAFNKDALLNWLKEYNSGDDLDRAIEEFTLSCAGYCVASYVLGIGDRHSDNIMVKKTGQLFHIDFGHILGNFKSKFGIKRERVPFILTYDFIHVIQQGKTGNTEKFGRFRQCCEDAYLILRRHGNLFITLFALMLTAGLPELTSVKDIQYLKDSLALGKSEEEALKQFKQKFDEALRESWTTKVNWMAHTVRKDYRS

B1: p110β/ic-Y677A: p110β in a complex with p85β-icSH2-Y677A (protein)
chain: QQDQVVKEDSIEAVGAQLKVYHQQYQDKSREYDQLYEEYTRTSQELQMKRTAIEAFNETIKIFEEQGQTQEKCSKEYLERFRREGNEKEMQRILLNSERLKSRIAEIHESRTKLEQDLRAQASDNREIDKRMNSLKPDLMQLRKIRDQYLVWLTQKGARQRKINEWLGIKNETEDQYSLMEDEDALPHHEERTWYVGKINRTQAEEMLSGKRDGTFLIRESSQRGCYACSVVVDGDTKHCVIYRTATGFGFAEPANLYGSLKELVLHYQHASLVQHNDALTVTLAHPVRAPGPGPPSAAR
On to B1, for which, in the assay with p110β [1], the “activation by pY2” value was “not activated by pY2”. In addition, the EC50 in the assay with p110β [2] (absence of pY2, read-out: EC50 (enzyme concentration), kinase activity, basal) worked out at 110 pM; in the assay on p110β [2] (with 10 μM PDGFR pY2, read-out: EC50 (enzyme concentration), kinase activity, + pY2) it was 80 pM. In addition, the “basal activity versus wild-type complex” value in the assay on p110β [2] (absence of pY2, ADP formation, Figures 3A, 3B) is “more active than the wild-type p110β/p85β-icSH2”.

(Values after paper PMC3670040, “Structure of Lipid Kinase p110β/p85β Elucidates an Unusual SH2-Domain-Mediated Inhibitory Mechanism” (Molecular Cell, 2011).)
